Measurements: patent US8444970B2, “Compositions and methods for treating ocular diseases and conditions” (Lpath, Inc., priority 2006, dated 2013)

Columns and labels:
[1] = system: CNV lesions after laser-induced rupture of Bruch's membrane; assay: Murine model of laser-induced CNV and scar formation (Example 4); format: in vivo, mouse; conditions: 0.5 ug
Experimental: Female C57BL6/J mice were subjected to laser-induced rupture of Bruch's membrane and administered either 0.5 μg of Sphingomab or an isotype-matched non-specific (NS) antibody diluted in 2 μl of physiological saline. Mice were sacrificed 14 and 28 days after laser rupture.
To induce CNV lesions, the pupils were dilated with ophthalmic tropicamide (0.5%) and phenylephrine (2.5%). A coverslip was placed on the eye. An Oculight GL 532 nm (Iridex Corporation, Mountain View, Calif.) coupled to a slit lamp set to deliver a 100 msec pulse at 150 mW with a 50 μm spot size was used to rupture Bruch's membrane in three quadrants of the right eye located approximately 50 μm from the optic disc at relative 9, 12 and 3 o'clock positions. The left eye served as an uninjured control in all cases. Any lesion not associated with a vapor bubble or lesions that became confluent were excluded from analysis. […]
To assess collagen deposition, the sclera-choroid-RPE complex was stained with Masson's Trichrome. […] Approximately 30 sections per lesion were evaluated. Quantitation of the volume of collagen deposition was calculated in the same manner as described for CNV lesion volume.
Captured digital images were evaluated morphometrically using ImageJ software (Research Services Branch, National Institutes of Health, Bethesda, Md.).

HUVECs = assay: HUVEC tube formation on Matrigel; format: cell-based, human; conditions: co-incubated with S1P, GF-reduced Matrigel, 6 hr
Experimental: FIG. 5. FIG. 5 has two panels, A and B. In panel A, S1P is shown to promote neovascularization through induction of HUVECs tube formation and migration, which is reduced by SPHINGOMAB. […] The number of cells that migrated to the Matrigel membrane were counted in five independent fields.
Experiments were performed as described by Visentin et al. (Cancer Cell 2006 March; 9(3):225-38).

[2] = system: macrophage and mast cell infiltration; assay: Murine infarct model, immune cell infiltration into the wound; format: in vivo, mouse; conditions: 25 mg/kg 48 hr after surgery, four days post-MI
Experimental: FIG. 9. […] SPHINGOMAB reduced immune-cell wound infiltration in vivo. Mice were subjected to MI, treated with saline or 25 mg/kg SPHINGOMAB 48 hr. after surgery and then sacrificed on day 4. SPHINGOMAB reduced macrophage (A) and mast cell (B) infiltration into the wound. Data are represented as fold decrease of saline-treated values.
Based upon the similarities of immune and inflammatory responses in CNV and CVD, the efficacy of SPHINGOMAB to mitigate immune cell infiltration into a wound was evaluated in a murine infarct model as an indication of SPHINGOMAB's potential effects in mitigating these damages during AMD [Vine, et al. (2005), Opthalmology., vol 112: 2076-80; and Seddon and Chen (2004), Int Opthalmol Clin., vol 44: 17-39]. Four days post-MI, macrophage and mast cell infiltration was evaluated using MAC-1 and MCG35 antibodies, respectively, within the area at risk.

[3] = system: CNV lesions after laser rupture of Bruch's membrane; assay: CNV animal model of AMD, murine vs humanized mAbs (Example 17); format: in vivo, mouse; conditions: 0.5 ug intravitreal Day 0 and Day 6, 14 days post laser
Experimental: The humanized antibody variants and the murine antibody were compared for their ability to inhibit neo-vascularization in the CNV animal model of AMD as shown in FIG. 13. […] Mice were sacrificed 14 days post laser surgery. Control mice were treated with aqueous buffer (PBS) or an isotype-matched non-specific antibody. Three of the humanized variants inhibited angiogenesis essentially equivalently to the murine antibody as assessed by measurement of CNV area. CNV lesion volumes are represented as means±SEM. […]
The morphometric and volumetric CNV lesions were measured as follows. […]
Captured digital images were evaluated morphometrically using ImageJ software (Research Services Branch, National Institutes of Health, Bethesda, Md.). Images were split into separate RGB channels for analysis of the red and green channels as follows: 1) a calibration for the specific objective and microscope was applied to set the pixel-to-length ratio; 2) a threshold was applied using the Otsu algorithm; 3) images will be made binary; 4) a region-of-interest (ROI) was outlined to include the entire lesion area; 5) a particle analysis was performed to quantify the pixel area above the threshold level within the ROI. […]

B1: LT1002: murine anti-S1P monoclonal antibody, IgG1 kappa, hybridoma clone 306D326.26 (antibody, listed as Mus sp., V domains shown)
VH: QAHLQQSDAELVKPGASVKISCKVSGFIFIDHTIHWMKQRPEQGLEWIGCISPRHDITKYNEMFRGKATLTADKSSTTAYIQVNSLTFEDSAVYFCARGGFYGSTIWFDFWGQGTTLTVS
VL: ETTVTQSPASLSMAIGEKVTIRCITTTDIDDDMNWFQQKPGEPPNLLISEGNILRPGVPSRFSSSGYGTDFLFTIENMLSEDVADYYCLQSDNLPFTFGSGTKLEIK
choroidal neovascularization ([1]; 14 and 28 days after laser-induced rupture of Bruch's membrane): dramatically attenuates
fibrosis associated with CNV lesion formation ([1]; 28 days after laser-induced rupture): significantly reduces
formation of capillary-like structures (HUVECs): failed to form capillary-like structures
density of inflammatory macrophages [2]: dramatically attenuated
density of mast cells [2]: dramatically attenuated
Percent inhibition of lesion size [3]: approximately 80%
